In US20220249649A1 (ECOLE POLYTECHNIQUE FEDERALE DE LAUSANNE, published 2022):

Molecular target: T1, D25 antibody (IgG)
T1 construct: RSVF site 0 neutralising antibody, human IgG1 vector; The IgG was immobilised on the SPR chip; PDB 4JHW is cited; also called nAb D25
Test: not stated (comparison value, FIG. 18 cited)

B1: prefusion stabilized RSVF (sc9-10 DS-Cav1 A149C Y458C S46G E92D S215P K465Q variant, DS2) (other)
chain: QNITEEFYQSTCSAVSKGYLGALRTGWYTSVITIELSNIKENKCNGTDAKVKLIKQELDKYKNAVTDLQLLMQSTPPTNNGSGSAICSGVAVCKVLHLEGEVNKIKSALLSTNKAVVSLSNGVSVLTFKVLDLKNYIDKQLLPILNKQSCSIPNIETVIEFQQKNNRLLEITREFSVNAGVTTPVSTYMLTNSELLSLINDMPITNDQKKLMSNNVQIVRQQSYSIMCIIKEEVLAYVVQLPLYGVIDTPCWKLHTSPLCTTNTKEGSNICLTRTDRGWYCDNAGSVSFFPQAETCKVQSNRVFCDTMNSLTLPSEINLCNVDIFNPKYDCKIMTSKTDVSSSVITSLGAIVSCYGKTKCTASNKNRGIIKTFSNGCDYVSNKGMDTVSVGNTLYCVNKQEGQSLYVKGEPIINFYDPLVFPSDEFDASISQVNEKINQSLAFIRKSDELL
notes: also called preRSVF; prefusion RSVF
Kd: 150 µM
